Measurements: publication PMC12098889, “Structural insight into PIF6-mediated red light signal transduction of plant phytochrome B” (Cell Discovery, 2025)

Key:
[1] = biological target: phytochrome B (phyB), full length (1‒1172) (Arabidopsis) (UniProt P14713)
[2] = biological target: PIF6β (1‒182) (Arabidopsis); experiment: cryo-EM structure; phyB and PIF6β mixed ~1:1.5, on ice under red light (665 nm, 800 μmol m^-2 s^-1), SEC in 25 mM HEPES pH 7.8, 250 mM KCl, 10 mM DTT, 1 mM EDTA; irradiated with red light 20 min before freezing
[3] = biological target: the molecule itself; experiment: cryo-EM structure; phyB^Y276H or phyBN^Y276H mixed with PIF6β ~1:1.5; full-length complex prepared in the dark; SEC on Superose 6 Increase before freezing
[4] = biological target: the molecule itself; experiment: cross-linking; thiol-directed cross-linking with 1 mM M2M, ~2 μM protein, on ice 30 min, under red light (665 nm, 767 μmol m^-2 s^-1); 25 mM Tris-HCl pH 8.0, 150 mM NaCl; reversed by DTT; more cross-linked band with the PIF6 fragment 13-100
phyB^Y276H, full length = biological target: T1, phyB^Y276H, full length (Arabidopsis, UniProt P14713 1-1172, Y276H, PΦB chromophore covalently bound); experiment: pull-down; StrepII-tagged PIF6 forms or PIFNs held on Strep-Tactin Sepharose, 3× Flag-phyB or phyB^Y276H in the mixture; in the dark, 4 °C, 2 h; buffer E (100 mM Tris-HCl pH 8.0, 150 mM NaCl, 1 mM EDTA); SDS-PAGE with Coomassie and zinc-induced fluorescence; conditions: both partners purified
T1 construct: Arabidopsis phytochrome B, residues 1-1172, At2g18790, with Y276H; also called constitutively active mutant phyB^Y276H; source: E. coli BL21(DE3), co-expressed with HO1 and HY2, purified (Ni-NTA, anti-FLAG resin, Source Q); not shown: 3× Flag ([residues removed]), N-terminal, kept
T1 sequence (looked up): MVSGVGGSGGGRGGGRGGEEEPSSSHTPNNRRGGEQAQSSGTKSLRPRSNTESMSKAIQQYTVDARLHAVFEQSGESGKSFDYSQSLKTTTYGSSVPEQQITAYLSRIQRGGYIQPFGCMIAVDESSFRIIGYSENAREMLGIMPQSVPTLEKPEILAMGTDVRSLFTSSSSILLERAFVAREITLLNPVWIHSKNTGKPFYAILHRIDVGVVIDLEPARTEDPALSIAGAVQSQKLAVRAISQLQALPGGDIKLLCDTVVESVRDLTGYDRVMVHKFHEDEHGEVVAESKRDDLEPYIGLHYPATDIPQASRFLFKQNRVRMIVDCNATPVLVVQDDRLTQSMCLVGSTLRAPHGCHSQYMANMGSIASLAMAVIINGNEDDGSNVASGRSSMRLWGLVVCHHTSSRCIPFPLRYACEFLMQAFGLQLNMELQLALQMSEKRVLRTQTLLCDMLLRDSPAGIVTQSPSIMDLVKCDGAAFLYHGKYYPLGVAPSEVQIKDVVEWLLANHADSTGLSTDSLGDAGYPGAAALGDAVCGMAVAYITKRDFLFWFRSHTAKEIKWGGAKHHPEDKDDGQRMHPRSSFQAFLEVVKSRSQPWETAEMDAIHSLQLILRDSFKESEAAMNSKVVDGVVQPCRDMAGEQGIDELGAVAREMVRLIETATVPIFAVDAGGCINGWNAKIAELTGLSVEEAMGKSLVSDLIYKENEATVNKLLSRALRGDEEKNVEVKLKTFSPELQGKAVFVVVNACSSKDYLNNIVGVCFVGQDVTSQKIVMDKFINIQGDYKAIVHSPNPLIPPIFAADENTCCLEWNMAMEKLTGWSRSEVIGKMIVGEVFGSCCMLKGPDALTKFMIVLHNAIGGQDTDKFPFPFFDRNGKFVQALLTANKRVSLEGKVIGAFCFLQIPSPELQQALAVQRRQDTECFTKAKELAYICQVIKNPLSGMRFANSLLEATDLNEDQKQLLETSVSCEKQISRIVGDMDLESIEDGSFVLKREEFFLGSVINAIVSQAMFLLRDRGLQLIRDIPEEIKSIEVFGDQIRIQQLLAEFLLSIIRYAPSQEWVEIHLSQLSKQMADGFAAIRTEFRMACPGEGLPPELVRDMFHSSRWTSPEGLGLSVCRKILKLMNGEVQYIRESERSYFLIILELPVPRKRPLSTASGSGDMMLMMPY

In the case of PIF6β (1‒182) (natural protein), the Pfr→Pr thermal reversion at 25 °C: amount of phyB-Pfr remaining after 400 min with PIF6β against phyB alone [1] is reported as 8 fold.

With “phytochrome B (phyB), full length (1‒1172) (from UniProt P14713 1-1172) (receptor)” the stoichiometry N (phyB per PIF6β) [2] was 2.

B1: phyBN^Y276H (1‒908) (domain or fragment, Arabidopsis, UniProt P14713 1-908, looked up)
chain: MVSGVGGSGGGRGGGRGGEEEPSSSHTPNNRRGGEQAQSSGTKSLRPRSNTESMSKAIQQYTVDARLHAVFEQSGESGKSFDYSQSLKTTTYGSSVPEQQITAYLSRIQRGGYIQPFGCMIAVDESSFRIIGYSENAREMLGIMPQSVPTLEKPEILAMGTDVRSLFTSSSSILLERAFVAREITLLNPVWIHSKNTGKPFYAILHRIDVGVVIDLEPARTEDPALSIAGAVQSQKLAVRAISQLQALPGGDIKLLCDTVVESVRDLTGYDRVMVHKFHEDEHGEVVAESKRDDLEPYIGLHYPATDIPQASRFLFKQNRVRMIVDCNATPVLVVQDDRLTQSMCLVGSTLRAPHGCHSQYMANMGSIASLAMAVIINGNEDDGSNVASGRSSMRLWGLVVCHHTSSRCIPFPLRYACEFLMQAFGLQLNMELQLALQMSEKRVLRTQTLLCDMLLRDSPAGIVTQSPSIMDLVKCDGAAFLYHGKYYPLGVAPSEVQIKDVVEWLLANHADSTGLSTDSLGDAGYPGAAALGDAVCGMAVAYITKRDFLFWFRSHTAKEIKWGGAKHHPEDKDDGQRMHPRSSFQAFLEVVKSRSQPWETAEMDAIHSLQLILRDSFKESEAAMNSKVVDGVVQPCRDMAGEQGIDELGAVAREMVRLIETATVPIFAVDAGGCINGWNAKIAELTGLSVEEAMGKSLVSDLIYKENEATVNKLLSRALRGDEEKNVEVKLKTFSPELQGKAVFVVVNACSSKDYLNNIVGVCFVGQDVTSQKIVMDKFINIQGDYKAIVHSPNPLIPPIFAADENTCCLEWNMAMEKLTGWSRSEVIGKMIVGEVFGSCCMLKGPDALTKFMIVLHNAIGGQDTDKFPFPFFDRNGKFVQALLTANKRVSLEGKVIGAFCFLQIPS
modifications: PΦB chromophore covalently bound
notes: Arabidopsis phytochrome B, residues 1-908, with Y276H; also called HKRD-truncated phyBN^Y276H; truncated phyBN^Y276H (M1‒S908); source: E. coli BL21(DE3), co-expressed with HO1 and HY2, purified; not shown: 3× Flag, N-terminal, kept
B1: binds [3].

B2: phyB^T449C (with C925S, C936S, C972S and C1121S) (receptor, Arabidopsis, UniProt P14713 1-1172, looked up)
chain: MVSGVGGSGGGRGGGRGGEEEPSSSHTPNNRRGGEQAQSSGTKSLRPRSNTESMSKAIQQYTVDARLHAVFEQSGESGKSFDYSQSLKTTTYGSSVPEQQITAYLSRIQRGGYIQPFGCMIAVDESSFRIIGYSENAREMLGIMPQSVPTLEKPEILAMGTDVRSLFTSSSSILLERAFVAREITLLNPVWIHSKNTGKPFYAILHRIDVGVVIDLEPARTEDPALSIAGAVQSQKLAVRAISQLQALPGGDIKLLCDTVVESVRDLTGYDRVMVYKFHEDEHGEVVAESKRDDLEPYIGLHYPATDIPQASRFLFKQNRVRMIVDCNATPVLVVQDDRLTQSMCLVGSTLRAPHGCHSQYMANMGSIASLAMAVIINGNEDDGSNVASGRSSMRLWGLVVCHHTSSRCIPFPLRYACEFLMQAFGLQLNMELQLALQMSEKRVLRTQCLLCDMLLRDSPAGIVTQSPSIMDLVKCDGAAFLYHGKYYPLGVAPSEVQIKDVVEWLLANHADSTGLSTDSLGDAGYPGAAALGDAVCGMAVAYITKRDFLFWFRSHTAKEIKWGGAKHHPEDKDDGQRMHPRSSFQAFLEVVKSRSQPWETAEMDAIHSLQLILRDSFKESEAAMNSKVVDGVVQPCRDMAGEQGIDELGAVAREMVRLIETATVPIFAVDAGGCINGWNAKIAELTGLSVEEAMGKSLVSDLIYKENEATVNKLLSRALRGDEEKNVEVKLKTFSPELQGKAVFVVVNACSSKDYLNNIVGVCFVGQDVTSQKIVMDKFINIQGDYKAIVHSPNPLIPPIFAADENTCCLEWNMAMEKLTGWSRSEVIGKMIVGEVFGSCCMLKGPDALTKFMIVLHNAIGGQDTDKFPFPFFDRNGKFVQALLTANKRVSLEGKVIGAFCFLQIPSPELQQALAVQRRQDTESFTKAKELAYISQVIKNPLSGMRFANSLLEATDLNEDQKQLLETSVSSEKQISRIVGDMDLESIEDGSFVLKREEFFLGSVINAIVSQAMFLLRDRGLQLIRDIPEEIKSIEVFGDQIRIQQLLAEFLLSIIRYAPSQEWVEIHLSQLSKQMADGFAAIRTEFRMACPGEGLPPELVRDMFHSSRWTSPEGLGLSVSRKILKLMNGEVQYIRESERSYFLIILELPVPRKRPLSTASGSGDMMLMMPY
modifications: PΦB chromophore covalently bound
notes: Arabidopsis phytochrome B (1-1172) with T449C for cross-linking and C925S, C936S, C972S, C1121S against nonspecific cross-linking; source: E. coli BL21(DE3), purified
B2: binds [4].

B3: phyB^Y276H/T449C (with C925S, C936S, C972S and C1121S) (receptor, Arabidopsis, UniProt P14713 1-1172, looked up)
chain: MVSGVGGSGGGRGGGRGGEEEPSSSHTPNNRRGGEQAQSSGTKSLRPRSNTESMSKAIQQYTVDARLHAVFEQSGESGKSFDYSQSLKTTTYGSSVPEQQITAYLSRIQRGGYIQPFGCMIAVDESSFRIIGYSENAREMLGIMPQSVPTLEKPEILAMGTDVRSLFTSSSSILLERAFVAREITLLNPVWIHSKNTGKPFYAILHRIDVGVVIDLEPARTEDPALSIAGAVQSQKLAVRAISQLQALPGGDIKLLCDTVVESVRDLTGYDRVMVHKFHEDEHGEVVAESKRDDLEPYIGLHYPATDIPQASRFLFKQNRVRMIVDCNATPVLVVQDDRLTQSMCLVGSTLRAPHGCHSQYMANMGSIASLAMAVIINGNEDDGSNVASGRSSMRLWGLVVCHHTSSRCIPFPLRYACEFLMQAFGLQLNMELQLALQMSEKRVLRTQCLLCDMLLRDSPAGIVTQSPSIMDLVKCDGAAFLYHGKYYPLGVAPSEVQIKDVVEWLLANHADSTGLSTDSLGDAGYPGAAALGDAVCGMAVAYITKRDFLFWFRSHTAKEIKWGGAKHHPEDKDDGQRMHPRSSFQAFLEVVKSRSQPWETAEMDAIHSLQLILRDSFKESEAAMNSKVVDGVVQPCRDMAGEQGIDELGAVAREMVRLIETATVPIFAVDAGGCINGWNAKIAELTGLSVEEAMGKSLVSDLIYKENEATVNKLLSRALRGDEEKNVEVKLKTFSPELQGKAVFVVVNACSSKDYLNNIVGVCFVGQDVTSQKIVMDKFINIQGDYKAIVHSPNPLIPPIFAADENTCCLEWNMAMEKLTGWSRSEVIGKMIVGEVFGSCCMLKGPDALTKFMIVLHNAIGGQDTDKFPFPFFDRNGKFVQALLTANKRVSLEGKVIGAFCFLQIPSPELQQALAVQRRQDTESFTKAKELAYISQVIKNPLSGMRFANSLLEATDLNEDQKQLLETSVSSEKQISRIVGDMDLESIEDGSFVLKREEFFLGSVINAIVSQAMFLLRDRGLQLIRDIPEEIKSIEVFGDQIRIQQLLAEFLLSIIRYAPSQEWVEIHLSQLSKQMADGFAAIRTEFRMACPGEGLPPELVRDMFHSSRWTSPEGLGLSVSRKILKLMNGEVQYIRESERSYFLIILELPVPRKRPLSTASGSGDMMLMMPY
modifications: PΦB chromophore covalently bound
notes: Arabidopsis phytochrome B (1-1172) with Y276H, T449C and C925S, C936S, C972S, C1121S; source: E. coli BL21(DE3), purified
B3: binds [4].

B4: PIF6α (1‒363) (natural protein, Arabidopsis, UniProt Q8L5W7 1-363, looked up)
chain: MMFLPTDYCCRLSDQEYMELVFENGQILAKGQRSNVSLHNQRTKSIMDLYEAEYNEDFMKSIIHGGGGAITNLGDTQVVPQSHVAAAHETNMLESNKHVDDSETLKASSSKRMMVDYHNRKKIKFIPPDEQSVVADRSFKLGFDTSSVGFTEDSEGSMYLSSSLDDESDDARPQVPARTRKALVKRKRNAEAYNSPERNQRNDINKKMRTLQNLLPNSHKDDNESMLDEAINYMTNLQLQVQMMTMGNRFVTPSMMMPLGPNYSQMGLAMGVGMQMGEQQFLPAHVLGAGLPGINDSADMLRFLNHPGLMPMQNSAPFIPTENCSPQSVPPSCAAFPNQIPNPNSLSNLDGATLHKKSRKTNR
notes: Modified pCold TF vector; purified on Ni resin, so a His tag is likely present but is not described; also called full-length PIF6α; source: E. coli BL21(DE3), purified (Ni-NTA, Strep-Tactin, Source Q); not shown: StrepII, C-terminal, kept
B4: binds (phyB^Y276H, full length).
